Series [1] has as its target T1, RBD on Ag nanoparticles (RBD NP) (SARS-CoV-2 (Wuhan strain), UniProt P0DTC2 319-541). The series is described as follows: SERS sandwich; BLI ([…]; BLI ([…], room temperature; […].
Series [2] addresses T1, RBD on Ag nanoparticles (RBD NP). Nature of the series: BLI; BLI ([…]; BLI ([…], room temperature; […]. In general terms: BLI is a label-free optical method that tracks binding on a fibre tip over time.

B1: Found-SH (ssDNA)
DNA: CACCGCTTTTGCCTTTTGGGGACGGATATAGGGAAACACGATAGAATCCGAACAGCACC
As for B1, the binding result in series [1] is “binds”.

B2: RBD-1C (biotinylated) (ssDNA)
DNA: CAGCACCGACCTTGTGCTTTGGGAGTGCTGGTCCAAGGGCGTTAATGGACA
B2: the binding result in series [2] was “binds”.

B3: RBD-1C-Cy3 (ssDNA)
DNA: CAGCACCGACCTTGTGCTTTGGGAGTGCTGGTCCAAGGGCGTTAATGGACA
In the case of B3, the binding result in series [1] is on record as “binds”.

(Values after paper PMC9497064, “Model of the SARS-CoV-2 Virus for Development of a DNA-Modified, Surface-Enhanced Raman Spectroscopy Sensor with a Novel Hybrid Plasmonic Platform in Sandwich Mode”.)
